This note sets out measurements from patent US8993320B2, “Culture method to obtain and maintain a pure or enriched population of mammalian neural stem cells and/or neural/progenitor cells that are prone to differentiate into oligodendrocyte-lineage cells in vitro” (priority 2011, dated 2015).

Test [1] deals with HFSC cells. Put plainly: Expansion of HFSC cells with growth factors and supplements (live cell count). Format: cell-based, human. The following applies: 10 ng/ml NT-3 added at passage 17; cell line #2b; effect disappeared after a passage.
Test [2] relates to HFSC cells. The test is described as above. Format: cell-based, human. The following applies: cell line #2b and cell line #3; same condition except for PDGF-AA. The protocol: FIG. 4 illustrates the expansion rate of HFSC cells (cell line #2b) in the presence of different combinations of growth factors: (1): 20 ng/ml PDGF-AA+10 ng/ml bFGF; (2): 20 ng/ml PDGF-AA+10 ng/ml bFGF+5 ng/ml NT-3; (3): 20 ng/ml PDGF-AA+10 ng/ml bFGF+10 ng/ml IGF-1; (4): 20 ng/ml PDGF-AA+10 ng/ml bFGF+5 ng/ml NT-3+10 ng/ml IGF-1. The cells were harvested at day 11 of passage 3 (P3D11) and number of live cells in each condition was counted. Then, they were passaged in the same condition that was used at passage 3 at the same cell density. The cells were harvested at day 8 of passage 4 (P4D8) and number of live cells in each condition was counted (these cells were harvested before they became sub-confluent because they started forming spheres). […] Condition (3) was effective at both passages. […] The cells were harvested at day 7 of passage 5 (these cells were harvested before they became sub-confluent because they started forming spheres as they did at passage 4) and number of live cells in each condition was counted. […]

B1: neurotrophin-3 (protein, UniProt P20783 139-257, looked up)
Neurotrophin-3: YAEHKSHRGEYSVCDSESLWVTDKSSAIDIRGHQVTVLGEIKTGNSPVKQYFYETRCKEARPVKNGCRGIDDKHWNSQCKTSQTYVRALTSENNKLVGWRWIRIDTSCVCALSRKIGRT
notes: growth factor
Regarding B1, the “effect on cell growth” value in test [1] is recorded as “enhanced the cell growth a little bit”.

B2: PDGF-BB: PDGF family member used to replace PDGF-AA (protein, UniProt P01127 82-190, looked up)
Platelet-derived growth …: SLGSLTIAEPAMIAECKTRTEVFEISRRLIDRTNANFLVWPPCVEVQRCSGCCNNRNVQCRPTQVQLRPVQVRKIEIVRKKPIFKKATVTLEDHLACKCETVAAARPVT
Regarding B2, the “expansion of cells when replacing PDGF-AA” value in test [2] is “could expand both cell lines”.
